Source: the supplement of paper PMC7877785
± gives the uncertainty stated by the source.

Experiment: self-splicing fitness, log relative to wild type (ln ratio); higher = more splicing; Tetrahymena group I intron in knt gene, E. coli kanamycin selection, DiMSum; sequences stand for … in CUCUCU…GGAGGGAAAAGUUAUCAGGCAUGCACCUGGUAGCUAGUCUUUAAACCAAUAGAUUGCAUCGGUUUAAAAGGCAAGACCGUCAAAUUGCGGGAAAGGGGUCAACAGCCGUUCAGUACCAAGUCUCAGGGGAAACUUUGAGAUGGCCUUGCAAAGGGUAUGGUAAUAAGCUGACGGACAUGGUCCUAACCACGCAGCCAAGUCCUAAGUCAACAGAUCUUCUGUUGAUAUGGAUGCAGUUCACAGACUAAAUGUCGGUCGGGGAAGAUGUAUUCUUCUCAUAAGAUAUAGUCGGACCUCUCCUUAAUGGGAGCUAGCGGAUGAAGUGAUGCAACACUGGAGCCGCUGGGAACUAAUUUGUAUGCGAAAGUAUAUUGAUUAGUUUUGGAGUACUCGUGGUCG
Method in brief: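 Library with all eight P1ex-region intron nucleotides randomised, intron inside the knt kanamycin-resistance gene on pET-22b(+), in E. coli BL21(DE3). Cells grew overnight at 37°C or 30°C on LB agar with or without 25 μg/mL kanamycin (plus 100 μg/mL carbenicillin, 50 μM IPTG, 0.2% rhamnose), in six replicate transformations. Pooled colonies were amplicon-sequenced on Illumina HiSeq 2500. DiMSum fitness is the error-weighted combination of wild-type-normalised replicate fold changes, kanamycin versus none.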

Sequence | self-splicing fitness (ln) (30 °C) | self-splicing fitness (ln) (37 °C)
UGACAGCAAUAUUACGUCUA | -0.75 ± 0.09 | -0.464 ± 0.098
GUUGAGCAAUAUUACGUAUG | -2.76 ± 0.34 | -1.52 ± 0.29
GACUAGCAAUAUUACGAUGA | -0.535 ± 0.1 | -1.08 ± 0.08
CAGGAGCAAUAUUACGGGCC | -3.76 ± 0.42 | –
GCGCAGCAAUAUUACGAAGC | -2.98 ± 0.25 | -2.37 ± 0.18
GCAUAGCAAUAUUACGCGCA | -1.09 ± 0.12 | -0.397 ± 0.14
ACGCAGCAAUAUUACGAAUU | -4.01 ± 0.23 | -1.48 ± 0.1
ACCCAGCAAUAUUACGGUUC | -2.22 ± 0.072 | -1.32 ± 0.094
UACGAGCAAUAUUACGACAA | -2.15 ± 0.47 | -1.2 ± 0.31
CCACAGCAAUAUUACGCCGC | -3.12 ± 0.21 | -3.49 ± 0.27
UGCUAGCAAUAUUACGGGCC | -1.55 ± 0.14 | -1.33 ± 0.15
CGUUAGCAAUAUUACGUCAA | – | -1.41 ± 0.38
CAAAAGCAAUAUUACGCCCG | -0.0339 ± 0.13 | 0.354 ± 0.15
GGCGAGCAAUAUUACGAUGA | -2.08 ± 0.17 | -2.93 ± 0.33
UGGAAGCAAUAUUACGGUUC | -3.84 ± 0.2 | -2.21 ± 0.2
AGAAAGCAAUAUUACGGUUU | -0.927 ± 0.068 | -0.0576 ± 0.082
CGCGAGCAAUAUUACGAAUA | -2.84 ± 0.35 | -2.25 ± 0.38
GUGCAGCAAUAUUACGUGCU | -3.49 ± 0.32 | -2.35 ± 0.35
GUGAAGCAAUAUUACGUGUA | -1.11 ± 0.069 | -0.878 ± 0.087
GAAAAGCAAUAUUACGUAUG | -1.6 ± 0.079 | -1.74 ± 0.12
GGUAAGCAAUAUUACGAUGA | -1.83 ± 0.26 | -0.16 ± 0.2
CGGAAGCAAUAUUACGUAUU | -3.43 ± 0.28 | -3.37 ± 0.37
CCCCAGCAAUAUUACGGUAA | -3.78 ± 0.15 | -2.78 ± 0.16
UACGAGCAAUAUUACGUAAU | -4.22 ± 0.31 | -1.43 ± 0.19

Sequence | self-splicing fitness (ln) (30 °C) | self-splicing fitness (ln) (37 °C)
UUGUAGCAAUAUUACGUGCA | -2.4 ± 0.15 | -1.14 ± 0.18
CGACAGCAAUAUUACGGAAU | -2.5 ± 0.24 | -2.54 ± 0.26
AUCAAGCAAUAUUACGACAA | -1 ± 0.12 | -0.427 ± 0.12
AAGGAGCAAUAUUACGUCAA | -1.97 ± 0.22 | -2.96 ± 0.4
CGCGAGCAAUAUUACGCUAA | -2.95 ± 0.27 | -2.55 ± 0.28
UGAAAGCAAUAUUACGAACA | -0.213 ± 0.064 | 0.349 ± 0.08
CGCCAGCAAUAUUACGACUA | -2.15 ± 0.2 | -2.13 ± 0.2
UGUCAGCAAUAUUACGAACU | -0.744 ± 0.086 | -0.0942 ± 0.086
AACCAGCAAUAUUACGCAAA | -0.829 ± 0.1 | -0.805 ± 0.11
UAAAAGCAAUAUUACGUUGA | -2.41 ± 0.11 | -1.46 ± 0.11
UCGCAGCAAUAUUACGUCGC | -3.2 ± 0.37 | –
AUGCAGCAAUAUUACGCCAG | -2.18 ± 0.13 | -1.23 ± 0.17
CCUUAGCAAUAUUACGUUCA | -3.3 ± 0.47 | -2.9 ± 0.47
AGAAAGCAAUAUUACGGCUU | -1.26 ± 0.072 | -0.7 ± 0.089
UCGAAGCAAUAUUACGGUUC | -4.34 ± 0.34 | -2.79 ± 0.32
AGACAGCAAUAUUACGAUCA | -0.682 ± 0.074 | 0.267 ± 0.089
UCAAAGCAAUAUUACGAAGG | -2.26 ± 0.1 | -1.05 ± 0.13
GGGCAGCAAUAUUACGAUCC | -1.89 ± 0.42 | -0.374 ± 0.37
CAGGAGCAAUAUUACGUACU | – | -2.97 ± 0.38
GCCCAGCAAUAUUACGAUAG | -2.76 ± 0.14 | -3.33 ± 0.2
UAAUAGCAAUAUUACGCGCA | -1.13 ± 0.086 | 0.129 ± 0.1
GCUCAGCAAUAUUACGCUGG | -2.98 ± 0.16 | -2.27 ± 0.22
UCUCAGCAAUAUUACGCGGA | -2.54 ± 0.37 | -2.46 ± 0.29
AGAGAGCAAUAUUACGUUAU | -2.61 ± 0.18 | -2.64 ± 0.48
